{"source": "patent US12428485B2", "about": "“Compositions and methods to block and bind CCR2 to modulate cellular function” (The Research Foundation for The State University of New York, priority 2019, dated 2025)", "molecules": {"B1": {"name": "IL-4: interleukin, M2 promoting agent (protein, UniProt P05112 25-153, looked up)", "Interleukin-4": "HKCDITLQEIIKTLNSLTEQKTLCTELTVTDIFAASKNTTEKETFCRAATVLRQFYSHHEKDTRCLGATAQQFHRHKQLIRFLKRLDRNLWGLAGLNSCPVKEANQSTLENFLERLKTIMREKYSKCSS"}, "B2": {"name": "ECL2-scFv: scFv against the 2nd extracellular loop (ECL2) of CCR2; Example 3 names scFv 4h, SEQ ID NO:6 (protein, listed as Homo sapiens)", "scFv": "MKKTAIAIAVALAGFATVAQADYKDDDDKLQSVLTQPPSASGTPGQRVTISCSGSSSNIGSHTVNWYQQLPGTAPKLLIYRNNQRPSGVPDRFSGSKSGTSASLAISGLRSEDEADYYCAAWDDSLSGVVFGGGTKLTVLGEGKSSGSGSESKASQVTLKESGAEVKKPGASVKVSCKASGYTFTNFYIHWVRRAPGQGLEWMGIINPSDGRTTYAQKFQGRVTMTRDTSTSTLYMELTSLRSEDTAVYYCGRGGHYSNYFGQPSTWGQGTLVTVSSVEAS"}}, "key": {"[1]": {"system": "triple-negative breast cancer (TNBC) tumors", "assay": "Flow cytometry of immune cells in harvested TNBC tumors", "type": "in vivo, BALB/c mice", "from_the_text": "At study completion, the tumors were harvested, digested, and single cell suspensions stained for immune cells. Dual-epitope blocking of CCR2 reduced TAMs, MDSCs, and M2-Macrophages and increased M1-Macrophages in triple-negative breast cancer (TNBCs).\nWe observed that dual-epitope scFv combination treatment outperforms small molecule CCR2 antagonist (SMA) and decreased tumor-associated macrophages (TAMs), myeloid-derived suppressor cells (MDSCs), and M2-macrophages and increased M1-macrophages. Single cell suspension from the harvested tumors were analyzed by flow cytometry. The cells were stained for (A) CD68+ TAMs, (B) MDSCs, (C) MHC class II macrophages (M1), and (D) CD206+ macrophages (M2).\nTreatment groups included: PBS, CCR2 small molecule antagonist (SMA), PEG(20K)-ECL2-scFv, PEG(20K)-NTD-scFv, and NTD & ECL2 combination (co-dosing of PEG(20K)-ECL2-scFv and PEG(20K)-NTD-scFv), with *p<0.05, **p<0.01, and ***p<0.001 by one-way ANOVA followed by Tukey's post-test."}, "[2]": {"system": "TNBCs in the mammary fat pads", "assay": "TNBC tumor growth, dual epitope blocking", "type": "in vivo, female BALB/c mice", "conditions": "scFvs 1 mg/kg, SMA 2 mg/kg, tail vein, days 7, 9, 12, 14, 16, 18", "method": "Further, we evaluated the effect of dual epitope blocking of CCCR2 on tumor growth. TNBCs were injected into the mammary fat pads of female BALB/c mice. Treatment of tumored mice started on days 7, 9, 12, 14, 16, and 18. To enhance the circulation half-life of the NTD-scFv and ECL2-scFv, we used site-directed mutagenesis to introduce a cysteine at the C-terminus of the scFvs for covalent attachment of a PEG-maleimide with molecular weight of 20 kDa. Animals (n=10 per group) were systemically (via tail vein injection) treated with (1) PBS, (2) CCR2-small molecule antagonist (SMA), (3) PEG(20K)-NTD-scFv, (4) PEG(20K)-ECL2-scFv, and (5) a NTD and ECL2 combo (co-dosing of PEG(20K)-NTD-scFv and PEG(20K)-ECL2-scFv)."}, "[3]": {"system": "RAW 264.7 mouse macrophages", "assay": "Macrophage polarization, RT-PCR of M1/M2 marker genes, RAW 264.7", "type": "cell-based", "conditions": "RAW 264.7, 24 h; LPS 100 ng/mL, IL-4 20 ng/mL, 58C-scFv 1 μM", "method": "RAW 264.7 mouse macrophages were incubated with either LPS (100 ng/mL), IL-4 (20 ng/mL; PeproTech, Rocky Hill, NJ), or 58C-scFv (1 μM) for 24 h. For the multivalency studies, RAW 264.7 mouse macrophages were first incubated with IL-4 (20 ng/mL) for 24 h to stimulate an M2 phenotype. Following the 24 h incubation, fresh media with 58C-scFv (89 nM) was added to the cells and incubated for an additional 24 h. Total RNA was isolated with QIAzol lysis reagent (Qiagen, Germany) and total cDNA was generated using the New England Biolabs first stand synthesis kit (Ipswich, MA). RNA expression was detected by reverse transcription (RT)-PCR performed with the SYBR Green PCR kit (Qiagen). For each sample, the ΔΔCt value was calculated. Experiments were performed in triplicate. […]\nTo assess the effects of the anti-CCR2 scFvs on macrophage polarization, RAW 264.7 and bone marrow-derived macrophages (BMDMs) were treated with NTD-scFv and ECL2-scFv. […] To determine whether these changes were additive, synergistic, or antagonistic, the combination indices (CI) were calculated for NTD-scFv and ECL2-scFv by treating cells with a combination of NTD-scFv and ECL2-scFv. CI was calculated by: CI=(CA,X/ICX,A)+(CB,X/ICX,B), where CA,X and CB,X are the concentration of drug A (in this case NTD-scFv) and B (here, ECL2-scFv) used in combination to achieve x % drug effect. […]"}, "[4]": {"system": "RAW 264.7 macrophage cells", "assay": "Cell binding analysis by flow cytometry, RAW 264.7", "design": "species or system mouse", "conditions": "fluorescently labeled scFv", "method": "FIG. 13. Binding of monomeric 58C-scFv (circles), low valency 58C-scFv attached to liposomes (triangles), and high valency 58C-scFv attached to liposomes (squares) to RAW 264.7 macrophage cells as determined by flow cytometry. […] The liposomes were incubated with DyLight 650 NHS Ester labeled 58C-scFv at 4° C. overnight. Cells were detached with 5 mM EDTA and re-suspended in PBS to a concentration of 50,000 cells per 300 μL. The cells were incubated with various dilutions of DyLight 650 NHS Ester labeled 58C-scFv (free, low degree of valency, or high degree of valency) for 1 h at 4° C. Cells were washed three times with 5% BSA and analyzed in the APC channel of a MACSQuant Analyzer 10 flow cytometer (Miltenyi Biotec, Bergisch Gladbach, Germany).\nCells were detached with 5 mM EDTA and re-suspended in PBS to a concentration of 50,000 cells per 300 μL. Cells were plated in a 48-well plate and incubated for 30 min at 4° C. After removing the PBS solution, the cells were incubated with various dilutions of DyLight 650 NHS Ester labeled 58C-scFv for 1 h at 4° C. Cells were washed three times with 5% BSA, detached with EDTA, and analyzed in the APC channel of a MACSQuant Analyzer 10 flow cytometer (Miltenyi Biotec, Bergisch Gladbach, Germany)."}, "4T1 breast cancer cells": {"system": "4T1 breast cancer cells", "assay": "Cell binding by flow cytometry, 4T1", "conditions": "MFI", "from_the_text": "FIG. 16. ECL2-scFv binding to the ECL2 domain of the CCR2 chemokine receptor."}, "human CCR2": {"target": "T1, human CCR2 (Homo sapiens, UniProt P41597)", "T1 construct": "endogenous in cells; host or cells: MDA-MB-231 human breast cancer cells", "T1 sequence (P41597 whole entry)": "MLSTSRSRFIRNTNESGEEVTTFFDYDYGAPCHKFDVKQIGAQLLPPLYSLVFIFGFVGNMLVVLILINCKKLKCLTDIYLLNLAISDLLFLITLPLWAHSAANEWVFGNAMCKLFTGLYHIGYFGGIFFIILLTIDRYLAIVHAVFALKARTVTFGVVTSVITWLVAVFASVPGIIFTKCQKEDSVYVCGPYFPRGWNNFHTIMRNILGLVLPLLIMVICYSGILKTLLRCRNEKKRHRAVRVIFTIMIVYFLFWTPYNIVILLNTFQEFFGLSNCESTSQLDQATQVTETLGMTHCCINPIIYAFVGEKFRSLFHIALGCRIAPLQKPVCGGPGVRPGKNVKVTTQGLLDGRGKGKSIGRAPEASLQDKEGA", "assay": "Cross-reactivity with human CCR2", "type": "binding"}}}
{"molecule": "Cc1ccc2c(c1)C1(CCN(CCc3nc(-c4ccccc4)oc3C)CC1)OC(=O)N2", "note": "[RS 504393]", "values": [{"measurement": "effects on TAMs, MDSCs, M1 and M2 macrophages compared to PBS control", "setting": "[1]; FIG. 24A-D, SMA 2 mg/kg", "result": "not significant"}, {"measurement": "change in Tregs, CD8+ and CD4+ T cells compared to PBS treated mice", "setting": "[1]; flow cytometry", "result": "no statistically significant reduction"}, {"measurement": "reduction in tumor volume, order among treatment groups", "setting": "[2]", "result": "weakest effect"}]}
{"molecule": "B1", "values": [{"measurement": "macrophage polarization, M1/M2 gene expression compared to the untreated control", "setting": "[3]", "result": "increased both Arg-1 and Mgl2 gene expression"}]}
{"molecule": "B2", "values": [{"measurement": "binding to RAW 264.7 cells", "setting": "[4]", "result": "binds"}, {"measurement": "binding to 4T1 breast cancer cells", "setting": "4T1 breast cancer cells", "result": "binds"}, {"measurement": "cross-reactivity, binding to human CCR2", "setting": "human CCR2", "result": "bind to human CCR2"}]}
